B1: His-tagged C-terminal region of ALB3 (aa 350-462) (domain or fragment)
chain: VYLRKLGGAKPNMDENASKIISAGRAKRSIAQPDDAGERFRQLKEQEKRSKKNKAVAKDTVELVEESQSESEEGSDDEEEEAREGALASSTTSKPLPEVGQRRSKRSKRKRTV
B2: His-tagged C-terminal region of ALB4 (aa 334-499) (domain or fragment)
chain: VWLQKYGGAKNPVEKFTNLVTKEDKTQQIEKSFSEPLVQKSVSELKIPREKGGEKVTPECPKPGERFRLLKEQEAKRRREKEERQKAEAALSNQNTDKAHEQDEKSDTAIVAEDDKKTELSAVDETSDGTVAVNGKPSIQKDETTNGTFGIGHDTEQQHSHETEKR

Biological target: T1, GST-tagged mature full-length GET3b (Arabidopsis thaliana, UniProt A1L4Y1 68-411)
T1 sequence: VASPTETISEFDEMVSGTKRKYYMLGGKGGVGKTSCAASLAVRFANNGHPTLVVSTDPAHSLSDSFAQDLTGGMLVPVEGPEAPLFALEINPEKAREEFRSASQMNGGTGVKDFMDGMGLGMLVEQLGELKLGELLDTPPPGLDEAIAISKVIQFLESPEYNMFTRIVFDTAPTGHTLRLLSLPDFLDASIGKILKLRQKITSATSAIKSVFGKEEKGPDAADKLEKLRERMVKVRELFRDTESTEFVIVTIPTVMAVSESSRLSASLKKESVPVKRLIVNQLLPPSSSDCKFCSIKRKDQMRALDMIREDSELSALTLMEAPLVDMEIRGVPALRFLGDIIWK
Assay: pull-down

Binder | binding result
B1 | binds
B2 | binds

From publication doi:10.1101/2024.12.05.626995 (bioRxiv, 2024)
